Experimental findings from paper PMC7688965 are described below.

Assay in all cases: IP-MS (HA-IP, label-free LC/MS-MS)
For one assay, the target named is HSPA4L. To be noted: HA-tagged Hop exogenously overexpressed in KO1 cells; n = 2; read off a plot.
The target of another assay is PSMC3. The note with it: HA-tagged Hop exogenously overexpressed in KO1 cells; n = 2; left graph; read off a plot.
Another assay deals with HUWE1. The note with it: HA-tagged Hop exogenously overexpressed in KO1 cells; n = 2; right graph; read off a plot.
The target of a further assay is USP5. To be noted: HA-tagged Hop exogenously overexpressed in KO1 cells; n = 2; right graph; read off a plot.
Another assay addresses HSPA6;HSPA7. The note with it: HA-tagged Hop exogenously overexpressed in KO1 cells; n = 2; read off a plot.
The next assay has as its target DNAJA1. The note with it: HA-tagged Hop exogenously overexpressed in KO1 cells; n = 2; read off a plot.
For a further assay, the target named is PSMD11. To be noted: HA-tagged Hop exogenously overexpressed in KO1 cells; n = 2; left graph; read off a plot.
In another assay the target is UBE2N;UBE2NL. The note with it: HA-tagged Hop exogenously overexpressed in KO1 cells; n = 2; right graph; read off a plot.
In another assay the target is HSPA5. To be noted: HA-tagged Hop exogenously overexpressed in KO1 cells; n = 2; read off a plot.
Another assay deals with USP10. The note with it: HA-tagged Hop exogenously overexpressed in KO1 cells; n = 2; right graph; read off a plot.
The next assay concerns the target PSMC1. The note with it: HA-tagged Hop exogenously overexpressed in KO1 cells; n = 2; left graph; read off a plot.
The target in another assay is DNAJA2. The note with it: HA-tagged Hop exogenously overexpressed in KO1 cells; n = 2; read off a plot.
For the next assay, the target named is PSMD12. The note with it: HA-tagged Hop exogenously overexpressed in KO1 cells; n = 2; left graph; read off a plot.
Another assay has as its target CDC37. To be noted: HA-tagged Hop exogenously overexpressed in KO1 cells; n = 2; read off a plot.
The next assay has as its target HSPH1. To be noted: HA-tagged Hop exogenously overexpressed in KO1 cells; n = 2; read off a plot.
The target in another assay is PSMD3. To be noted: HA-tagged Hop exogenously overexpressed in KO1 cells; n = 2; left graph; read off a plot.
A further assay deals with PSMD13. The note with it: HA-tagged Hop exogenously overexpressed in KO1 cells; n = 2; left graph; read off a plot.
In the next assay the target is PSMC4. To be noted: HA-tagged Hop exogenously overexpressed in KO1 cells; n = 2; left graph; read off a plot.
Another assay has as its target HSPA4. To be noted: HA-tagged Hop exogenously overexpressed in KO1 cells; n = 2; read off a plot.
A further assay addresses PSMC2. To be noted: HA-tagged Hop exogenously overexpressed in KO1 cells; n = 2; left graph; read off a plot.
Another assay deals with PSMC5. The note with it: HA-tagged Hop exogenously overexpressed in KO1 cells; n = 2; left graph; read off a plot.
Another assay addresses USP7. The note with it: HA-tagged Hop exogenously overexpressed in KO1 cells; n = 2; right graph; read off a plot.
The next assay addresses AHSA1. To be noted: HA-tagged Hop exogenously overexpressed in KO1 cells; n = 2; read off a plot.
A further assay has as its target UBA1. The note with it: HA-tagged Hop exogenously overexpressed in KO1 cells; n = 2; right graph; read off a plot.

Consider “HA-tagged WT Hop (from UniProt P31948) K8A; K229A”, for which the other: normalized enrichment (log2) WT Hop / K8A,K229A Hop was determined as 3 log2 in the assay with HSPA4L; 1 log2 with PSMC3; 2.7 log2 in the assay with HUWE1; 2.3 log2 with USP5; 4.5 log2 with HSPA6;HSPA7; 3.9 log2 in the assay with DNAJA1. Also, the other: normalized enrichment (log2) WT Hop / K8A,K229A Hop with PSMD11 came out at 1.7 log2; with UBE2N;UBE2NL, 0.8 log2; with HSPA5, 2.5 log2; in the assay with USP10 it was 2.5 log2; with PSMC1, 0.95 log2; in the assay with DNAJA2, 4.3 log2. Further, the other: normalized enrichment (log2) WT Hop / K8A,K229A Hop with PSMD12 is 3.1 log2; in the assay with CDC37 it was 3.2 log2; with HSPH1, 4 log2; in the assay with PSMD3, 1.5 log2; with PSMD13, 2.1 log2; in the assay with PSMC4 it was 0.25 log2. The other: normalized enrichment (log2) WT Hop / K8A,K229A Hop was 1.7 log2 in the assay with HSPA4; 0.65 log2 with PSMC2; 1.3 log2 in the assay with PSMC5; 2.9 log2 in the assay with USP7; 3 log2 in the assay with AHSA1; 0.85 log2 in the assay with UBA1.
